We go through three molecules from patent US20190353654A1.

Experiment [1] concerns the target CCL5 26-91 (UniProt P13501). Kind of experiment: MicroScale Thermophoresis, labeled receptor, ligand titrated, in buffer (1x PBS, 5 mM DTT). (Microscale thermophoresis detects binding through changes in fluorescence in a small temperature gradient.)
For experiment [2], the target named is CCL5 26-91 (UniProt P13501). Kind of experiment: MicroScale Thermophoresis, labeled receptor, ligand titrated, in 50% human serum.
Sequence of CCL5 26-91 (P13501 26-91 limits assumed, form in doubt): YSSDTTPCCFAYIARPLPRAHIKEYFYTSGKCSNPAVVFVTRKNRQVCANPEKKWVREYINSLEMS
Experiment [3] concerns the target CCL5 26-91 (UniProt P13501). Kind of experiment: MicroScale Thermophoresis, earlier independent purification from SF9 cells.
The target in experiment [4] is CXCL12 24-88 (UniProt P48061). The experiment can be described thus: MicroScale Thermophoresis, labeled receptor, ligand titrated, in buffer (1x PBS, 5 mM DTT).
Sequence of CXCL12 24-88 (P48061 24-88 limits assumed, form in doubt): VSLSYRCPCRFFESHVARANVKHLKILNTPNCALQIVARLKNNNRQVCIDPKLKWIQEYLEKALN
Experiment [5] has as its target CXCL12 24-88 (UniProt P48061). The experiment can be described thus: MicroScale Thermophoresis, labeled receptor, ligand titrated, in 50% human serum.
Experiment [6] addresses CXCL12 24-88 (UniProt P48061). The experiment can be described thus: MicroScale Thermophoresis, earlier independent purification and refolding from E. coli inclusion bodies.
Experiment [7] has as its target CXCL12 24-88 (UniProt P48061). Kind of experiment: MicroScale Thermophoresis, later independent purification and refolding from E. coli inclusion bodies.

By Kd is commonly meant the concentration at which binding is half-saturated. Read a high Kd as weaker binding.

B1: CCR5^QTY (receptor, not shown: small tags and cut ends)
chain: MDYQVSSPIYDINYYTSEPCQKINVKQIAARQQPPQYSQTFTYGFTGNMQTTQTQINCKRLKSMTDIYLQNQAISDQYYQQTTPYWAHYAAAQWDFGNTMCQQQTGQYFTGYYSGTYYTTQQTTDRYLAVVHAVFALKARTTTYGTTTSTTTWTTATYASQPGTTYTRSQKEGLHYTCSSHFPYSQYQFWKNFQTLKITIQGQVQPQQTMVTCYSGTQKTLLRCRNEKKRHRAVRQTFTTMTTYYQYWAPYNTTQQLNTFQEFFGLNNCSSSNRLDQAMQVTETQGMTHCCTNPTIYAYVGEKFRNYLLVFFQKHIAKRFCKCCSIFQQEAPERASSVYTRSTGEQEISVGL
modifications: Receptor labelled with NT647 dye (RED-NHS, on amines) for MST; sites not specified
B1: the equilibrium dissociation constant (Kd) in the experiment with CCL5 26-91 [1] worked out at 33.9 nM; with CCL5 26-91 [2] it was 45.9 nM; with CCL5 26-91 [3], 42 nM.

B2: CXCR7^QTY (receptor, not shown: small tags and cut ends)
chain: MDLHLFDYSEPGNFSDISWPCNSSDCIVVDTVMCPNMPNKSTQQYTQSYTYTYTYTTGMTANSVVVWVNIQAKTTGYDTHCYTQNQATADQWTTQTTPTWTTSLVQHNQWPMGELTCKTTHQTYSTNQYGSTYYQTCMSVDRYLSITYFTNTPSSRKKMVRRTTCTQTWQQAYCTSQPDTYYQKTVTSASNNETYCRSFYPEHSIKEWLIGMEQTSTTQGYATPYSTTATYYYQLARAISASSDQEKHSSRKTTYSYTTTYQTCWQPYHTATQLDIFSILHYIPFTCRLEHALFTAQHTTQCQSQTHCCTNPTQYSYTNRNYRYELMKAFIFKYSAKTGLTKLIDASRVSETEYSALEQSTK
modifications: The receptor was labelled with NT647 (RED-NHS dye on lysines, positions not defined) for MST. The letters do not carry this.
For B2, the results for the Kd with CXCL12 24-88 [4] and in the experiment with CXCL12 24-88 [5] were 2.2 nM and 6.6 nM, respectively.

B3: CXCR4^QTY (receptor, not shown: small tags and cut ends)
chain: MEGISIYTSDNYTEEMGSGDYDSMKEPCFREENANFNKTYQPTTYSTTYQTGTTGQGQTTQTMGYQKKQRSMTDKYRQHQSTADQQYTTTQPYWATDATANWYFGNFQCKATHTTYTTQQYSSTQTQAYTSQDRYLAIVHATNSQRPRKQQAEKTTYTGTWTPAQQQTTPDYTYANVSEADDRYICDRFYPNDLWTTTYQYQHTMTGQTQPGTTTQSCYCTTTSKLSHSKGHQKRKALKTTTTQTQAYYACWQPYYTGTSTDSFILLEIIKQGCEFENTVHKWTSTTEAQAYYHCCQQPTQYAYQGAKYKTSAQHAQTSTSRGSSQKTQSKGKRGGHSSTSTESESSSFHSS
modifications: Receptor labelled with NT647 dye (RED-NHS, on amines) for MST; sites not specified
Consider B3, for which the dissociation constant Kd with CXCL12 24-88 [4] came to 11.2 nM; in the experiment with CXCL12 24-88 [5], 44.7 nM; with CXCL12 24-88 [6], 17 nM; in the experiment with CXCL12 24-88 [7], 13 nM.
